Results as given in patent US20110217695A1.

Biological target: IGF1R (on MCF-7 cells) (UniProt P08069)
Experiment: cell-based or functional assay

UniProt P08069, sequence (P08069 31-1367 limits assumed): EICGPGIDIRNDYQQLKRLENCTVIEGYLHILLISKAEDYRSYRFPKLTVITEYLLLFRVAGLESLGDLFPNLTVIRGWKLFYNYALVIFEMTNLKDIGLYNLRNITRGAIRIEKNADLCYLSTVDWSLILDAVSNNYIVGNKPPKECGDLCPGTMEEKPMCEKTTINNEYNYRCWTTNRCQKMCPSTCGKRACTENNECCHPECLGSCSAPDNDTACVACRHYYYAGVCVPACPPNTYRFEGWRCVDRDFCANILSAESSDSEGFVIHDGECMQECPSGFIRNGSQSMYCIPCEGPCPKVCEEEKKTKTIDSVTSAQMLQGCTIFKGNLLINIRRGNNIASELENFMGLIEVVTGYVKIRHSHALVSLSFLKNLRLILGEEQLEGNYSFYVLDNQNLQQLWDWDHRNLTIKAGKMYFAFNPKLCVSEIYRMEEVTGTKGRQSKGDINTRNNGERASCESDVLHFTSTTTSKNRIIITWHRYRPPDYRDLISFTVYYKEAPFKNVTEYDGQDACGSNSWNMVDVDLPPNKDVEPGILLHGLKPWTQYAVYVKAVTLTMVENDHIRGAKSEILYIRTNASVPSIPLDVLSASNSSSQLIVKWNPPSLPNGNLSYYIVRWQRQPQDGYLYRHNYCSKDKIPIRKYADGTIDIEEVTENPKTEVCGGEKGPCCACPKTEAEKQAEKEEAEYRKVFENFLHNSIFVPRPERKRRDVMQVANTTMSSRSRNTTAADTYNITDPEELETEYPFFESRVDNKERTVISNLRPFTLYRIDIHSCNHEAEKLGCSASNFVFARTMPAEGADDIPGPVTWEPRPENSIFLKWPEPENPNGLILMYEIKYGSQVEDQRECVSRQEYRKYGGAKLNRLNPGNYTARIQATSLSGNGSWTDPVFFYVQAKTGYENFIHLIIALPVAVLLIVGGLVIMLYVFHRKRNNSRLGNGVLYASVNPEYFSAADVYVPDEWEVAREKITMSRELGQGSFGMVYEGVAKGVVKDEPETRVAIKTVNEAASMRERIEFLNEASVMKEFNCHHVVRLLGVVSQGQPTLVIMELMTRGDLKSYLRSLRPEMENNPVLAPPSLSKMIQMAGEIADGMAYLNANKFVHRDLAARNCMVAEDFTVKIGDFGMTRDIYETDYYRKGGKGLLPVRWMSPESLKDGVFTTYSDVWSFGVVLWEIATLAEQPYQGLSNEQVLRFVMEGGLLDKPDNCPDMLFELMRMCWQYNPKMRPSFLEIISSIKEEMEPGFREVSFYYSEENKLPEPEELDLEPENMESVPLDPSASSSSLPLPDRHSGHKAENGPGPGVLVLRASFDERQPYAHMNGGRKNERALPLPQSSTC

B1: 19D12 antibody (purified antibody obtained from 19D12 hybridoma) (antibody, from a related filing, V domains shown)
VH: EVQLVQSGGGLVHPGGSLRLSCAASGFTFSSFAMHWVRQAPGKGLEWISVIDTRGATYYADSVKGRFTISRDNAKNSLYLQMNSLRAEDMAVYYCARLGNFYYGMDVWGQGTTVTVSS
VL: EIVLTQVPDFQSVTPKEKVTITCRASQSIGSSLHWYQQKPDQSPKLLIKYASQSLSGVPSRFSGSGSGTDFTLTINSLEAEDAAAYYCHQSSRLPHTFGGGTKVEIKR
% Inhibition, KIRA assay (IGF-I-stimulated receptor phosphorylation in MCF-7 cells), at 0.01 nM Ab (first row): -3.26% | % Inhibition, KIRA assay (IGF-I-stimulated receptor phosphorylation in MCF-7 cells), at 0.01 nM Ab (second row): -0.34% | % Inhibition, KIRA assay (IGF-I-stimulated receptor phosphorylation in MCF-7 cells), at 0.03 nM Ab: -3.18% | % Inhibition, KIRA assay (IGF-I-stimulated receptor phosphorylation in MCF-7 cells), at 0.05 nM Ab: 0.87% | % Inhibition, KIRA assay (IGF-I-stimulated receptor phosphorylation in MCF-7 cells), at 0.10 nM Ab: 3.82% | % Inhibition, KIRA assay (IGF-I-stimulated receptor phosphorylation in MCF-7 cells), at 0.21 nM Ab: 10.1% | % Inhibition, KIRA assay (IGF-I-stimulated receptor phosphorylation in MCF-7 cells), at 0.42 nM Ab: 18% | % Inhibition, KIRA assay (IGF-I-stimulated receptor phosphorylation in MCF-7 cells), at 0.83 nM Ab: 39.4% | % Inhibition, KIRA assay (IGF-I-stimulated receptor phosphorylation in MCF-7 cells), at 1.67 nM Ab: 40.5% | % Inhibition, KIRA assay (IGF-I-stimulated receptor phosphorylation in MCF-7 cells), at 3.34 nM Ab: 54.6% | % Inhibition, KIRA assay (IGF-I-stimulated receptor phosphorylation in MCF-7 cells), at 6.67 nM Ab: 69.6%
